Measurements as given in patent US20160208003A1 (AFFITECH RESEARCH, published 2016).

T1: human CC chemokine receptor 4 (CCR4) (human, UniProt P51679 1-360)
T1 construct: whole, on cells; Always presented on cells; also called CD194; human CCR4
T1 sequence (looked up): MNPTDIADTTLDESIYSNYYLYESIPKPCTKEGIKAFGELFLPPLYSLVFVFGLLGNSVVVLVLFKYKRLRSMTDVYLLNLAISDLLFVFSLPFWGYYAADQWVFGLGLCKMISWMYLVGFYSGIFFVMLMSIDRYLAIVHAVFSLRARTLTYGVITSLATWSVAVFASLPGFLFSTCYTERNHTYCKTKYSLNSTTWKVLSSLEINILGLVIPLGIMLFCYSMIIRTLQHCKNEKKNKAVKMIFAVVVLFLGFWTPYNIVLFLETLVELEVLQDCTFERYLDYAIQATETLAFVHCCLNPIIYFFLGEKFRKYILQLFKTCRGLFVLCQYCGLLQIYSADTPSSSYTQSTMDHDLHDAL


Assays:
[1] = target: T1, human CC chemokine receptor 4 (CCR4); assay: flow cytometry competition; antibody titrated, competitor biotinylated MDC; cell line not given
Method: (§1) The cells were harvested from culture flasks, washed 2 times with PBS (400×g, 5 min, 4° C.) and resuspended in PBS containing 0.2% BSA and 0.09% NaN3. 1×10^5 cells per well were aliquoted into V-shaped 96-well plates (Greiner Bio-One, Frikenhausen, Germany). Cells were centrifuged (400×g, 5 min, 4° C.) and resuspended in 50 μl IgG, single chain or unlabeled ligand (1:10 dilution series starting on 100/500/26, 4 μg/ml) mixed with a fixed concentration of biotinylated ligand (10 or 20 nM, see legend to FIG. 24). The cells were incubated for 2 hours at 4° C. and mixed with a pipette every 45 min. The cells were washed three times with 150 μl PBS with 0.2% BSA and 0.09% NaN3 and stained with 3 μg/ml streptavidin PE (BD Biosciences) for 45 minutes at 4° C. Cells were washed, resuspended in 200 μl PBS with 0.2% BSA and 0.09% NaN3, and transferred to a U-shaped 96 well Costar (Corning, Schiphol-Rijik, The Netherlands) plate for flow cytometry using an FACS Canto II flow cytometer (BD Biosciences, Heidelberg, Germany). […] Apparent binding affinities (KD) were calculated according to the following equation derived from previously described methods (Kipriyanov et al, 1997b; Schodin & Kranz, 1993): […]

[2] = target: T1, human CC chemokine receptor 4 (CCR4); assay: flow cytometry, IgG titration on CCRF-CEM cells, anti-human-PE, MFI
[3] = target: T1, human CC chemokine receptor 4 (CCR4); assay: calculated from the IC50; CCRF-CEM cells, competitor biotinylated MDC
Method: The competition binding assays were performed with biotinylated MDC or biotinylated TARC on DT-40-CCR4+ and CCRF-CEM cells. DT40 and CCRF-CEM cells were cultured as described in Example 2. TARC and MDC were biotinylated using standard procedures. The biotinylation process causes some losses, so the concentrations of biotinylated MDC and TARC recited herein are approximate.
as §1, with “C.” for “C. Cells were washed, resuspended in 200 μl PBS with 0.2% BSA and 0.09% NaN3, and transferred to a U-shaped 96 well Costar (Corning, Schiphol-Rijik, The Netherlands) plate for flow cytometry using an FACS Canto II flow cytometer (BD Biosciences, Heidelberg, Germany).”

[4] = target: T1, human CC chemokine receptor 4 (CCR4); assay: calculated from the IC50; DT-40-CCR4+ cells, competitor 0.7 nM biotinylated IgG 9E
Method: (§2) DT40 and CCRF-CEM cells were cultivated as described in Example 2. The cells were harvested from culture flasks, washed 2 times with PBS (400×g, 5 min, 4° C.) and resuspended in PBS containing 0.2% BSA and 0.09% NaN3. 1×10^5 cells per well were aliquoted into V-shaped 96-well plates (Griner Bio-One, Frikenhausen, Germany). Cells were centrifuged (400×g, 5 min, 4° C.) and resuspended in 50 μl IgG 9E10J or KM3060var (dilution series starting at 5 μg/ml) mixed with biotinylated competitor antibody 9E (0.1 or 0.5 μg/ml). The cells were incubated for 2 hours at 4° C., mixing with a pipette every 45 min. The cells were washed three times with 150 μl PBS with 0.2% BSA and 0.09% NaN3 and stained with 3 μg/ml streptavidin PE (BD Biosciences) for 45 minutes at 4° C. Cells were washed, resuspended in 200 μl PBS with 0.2% BSA and 0.09% NaN3, and transferred to a U-shaped 96 well Costar (Corning, Schiphol-Rijik, The Netherlands) plate for flow cytometry using an FACS Canto II flow cytometer (BD Biosciences, Heidelberg, Germany).

[5] = target: T1, human CC chemokine receptor 4 (CCR4); assay: flow cytometry competition on CCRF-CEM cells; unlabelled IgG titrated, competitor 0.7 nM biotinylated IgG 9E
Method: (§3) Further competition experiments were carried out to assess whether or not the test antibodies recognise the same or overlapping epitopes, and to determine their relative affinities for CCR4. Antibodies 9E10J, 9E and KM3060var were tested using labelled 9E as a competitor.
as §2

[6] = target: T1, human CC chemokine receptor 4 (CCR4); assay: cell-based or functional assay
[7] = target: T1, human CC chemokine receptor 4 (CCR4); assay: flow cytometry, saturation titration of IgG on CCRF-CEM cells; one site-specific binding fit
[8] = target: T1, human CC chemokine receptor 4 (CCR4); assay: flow cytometry competition on DT-40-CCR4+ cells; unlabelled IgG titrated, competitor 0.7 nM biotinylated IgG 9E
Method: as §3, §2

[9] = target: T1, human CC chemokine receptor 4 (CCR4); assay: flow cytometry competition; antibody titrated, competitor biotinylated TARC; cell line not given
Method: as §1

[10] = target: T1, human CC chemokine receptor 4 (CCR4); assay: flow cytometry competition on DT-40-CCR4+ cells; unlabelled IgG titrated, competitor 3.3 nM biotinylated IgG 9E
Method: as §3, §2

| IC50 [1] | EC50 (read off the curve) [2] | Kd [3] | Kd [4] | IC50 [5] | ADCC of CCRF-CEM cells, EC50 (mean, N=2) [6] | Kd [7] | IC50 [8] | IC50 [9] | IC50 [10] | Binder |
| --- | --- | --- | --- | --- | --- | --- | --- | --- | --- | --- |
| 0.85 nM | ~0.1 nM | 0.2 nM | 0.05 nM | 0.07 nM | 8.7 ng/mL | 0.13 nM | 0.06 nM | 2.5 nM | 0.15 nM | 9E10J IgG (full length human IgG1, lambda) (antibody, V domains shown, also called IgG 9E10J; unmodified 9E10J) VH: QVQLVQSGAEVKKPGSSVKVSCKASGGTFSSYAISWVRQAPGQGLEWMGGIIPIFGTANYAQKFQGRVTMTRDTSTSTVYMELSSLRSEDTAVYYCARRGGSYFDYWGQGTLVTVSS VL: SYVLTQPPSASGTPGQSVTISCSGSTSNIGSHYVFWYQQLPGTAPRLLIYRNHQRPSGVPDRLSGSKSGTSASLAISGLRSEDEADYYCAVWDDTLSGWVFGGGTKLTVLG |
| 3.9 nM | ~0.3 nM | – | 0.39 nM | 0.38 nM | – | 0.37 nM | 0.44 nM | 12.5 nM | 3.5 nM | 9E IgG (full length human IgG1, lambda) (antibody, V domains shown, also called IgG 9E; IgG1 9E) VH: QVQLVQSGAEVKKPGSSVKVSCKASGGTFSNYAISWVRQAPGQGLEWMGGIIPIFGTANYAQKFQGRVTITADESTSTAYMELSSLRSEDTAVYYCARRGGSYFDYWGQGTLVTVSS VL: SYVLTQPPSASGTPGQSVTISCSGSTSNIGSHYVFWYQQLPGTAPRLLIYRNHQRPSGVPDRLSGSKSGTSASLAISGLRSEDEADYYCAVWDDTLSGWVFGGGTKLTVLG |
